The values that follow come from article PMC5750218, “Protein-inspired antibiotics active against vancomycin- and daptomycin-resistant bacteria” (Nature Communications, 2018).

Molecules are shown by their SMILES. In brackets after ≈: the same amount, converted by molar mass. Where two headings read alike, the source gives them in different places.

A word on the half-life: it is the time needed for the level to fall by half in the phase considered. A high value points to slow loss. As usually defined, the microsomal CLint is a measure of how fast metabolising enzymes remove a compound, apart from limits set by blood flow. Lower therefore signals slow turnover. What is called MIC is the smallest concentration in the dilution series that meets the test's criterion for growth inhibition.

One data set concerns MRSA. To be noted: MRSA in 50% human serum / 50% MHB. As to the method: The compounds, along with standard antibiotics were serially diluted twofold across the wells of 96-well non-binding surface (NBS) polystyrene plates (Corning 3641). […] Standards ranged from 64 to 0.03 µg mL^−1 and compounds from 8 to 0.003 µg mL^−1 with final assay volumes of 100 µL per well. Gram-positive bacteria were cultured in Mueller Hinton broth (MHB) (Bactolaboratories, Cat. no. 211443) at 37 °C overnight. A sample of each culture was then diluted 40-fold in fresh MHB and incubated at 37 °C for 2–3 h. […] All the plates were covered and incubated at 37 °C for 24 h. MICs were the lowest concentration showing no visible growth.
The compounds, along with standard antibiotics, tested in BMD-MIC assay as above, in the presence of a mixture of 50% human serum (Sigma-Aldrich) and 50% MHB.

A short description of data set [1]: SPR membrane binding assay. To be noted: L1 chip, DMPC / DMPG bilayers. As to the method:
SPR experiments were performed using a BIAcore 3000 (GE Health) instrument with a Biacore vesicle capture L1 sensor chip. […] Small unilamellar vesicles (SUV) were prepared in phosphate buffered saline (PBS) (pH 7.4) by sonication and extrusion. […] PBS was then added into each flask to give a suspension, which was sonicated for 5 cycles of 5 min each. […] The SUVs were injected across the L1 sensor chip for 30 min at a flow rate of […] to form a supported lipid bilayer. The coverage of the lipid bilayer was determined from the extent of non-specific binding of bovine serum albumin (0.1 mg mL^-1 in PBS, 5 min injection). A series of concentrations of vancomycin and […] passed sequentially over the different phospholipid-containing flow cells at a flow rate of 30 μL min^-1 for 180 s. The amount of antibiotic bound at equilibrium just before the end of the injection was corrected by subtraction of the bulk-refractive index difference observed at the beginning and the end of each injection. After each injection cycle, the lipid surface was regenerated with 20 mM 3-[(3-cholamidopropyl)dimethylammonio]-1-propanesulfonate (CHAPS) and a fresh lipid bilayer was loaded as described above. All assays were carried out at 25 °C in triplicate. […]

The nature of data set [2]: Critical micelle concentration assay. The format is physicochemical. To be noted: 0.2 M NaCl, DPH. As to the method: CMCs were determined as previously described[46] with a higher throughput modification. Briefly, a cascade dilution of each antibiotic was performed in a low binding polypropylene V-bottom shaped 96-well plates in the presence of 0.2 M NaCl solution across 12 concentrations ranging from 1000 to 0.1 μM, except the control melittin (100 to 0.01 μM). An identical cascade dilution was performed for the neutral detergent Triton X-100 and the anionic detergent sodium dodecyl sulphate (SDS) starting from 0.1% down to 0.00001% (vol:vol for Triton X-100 and wt:vol for SDS). An aliquot of […] (DPH) in DMSO was added in each well to yield the final DPH concentration of 5 μM. The reaction mixtures were mixed for 30 s and transferred in horizontal triplicate (25 μL per well) into a black falcon 384-well plate. The 384-well plate was then sealed, wrapped up in aluminium foil and incubated for 30 min at room temperature. The fluorescence intensity was monitored in real time using a BMG Labtech PolarStar Omega multimode reader fitted with 360-10 and 430-10 excitation and emission filters respectively, at an excitation wavelength of 360 nm and an emission wavelength of 430 nm.

In a further data set the test system is MRSA (ATCC 43300). To be noted: 20 days, increasing sub-lethal concentrations.
The conditions of data set [3]: for half-life / microsomal CLint: liver microsomes; for Microsome-Predicted EH: hepatic extraction ratio. As to the method: Performed by CDCO, Monash University, Australia.
The metabolic stability assay was performed by incubating each test compound (1 μM) with human (Xenotech, Lot #1210057) and mouse (Xenotech, Lot #1110071) liver microsomes at 37 °C and 0.4 mg mL^−1 protein concentration. The metabolic reaction was initiated by the addition of a nicotinamide adenine dinucleotide phosphate (NADPH)-regenerating system (i.e. NADPH is the cofactor required for cytochrome P450-mediated metabolism) and quenched at various time points over the 60 min incubation period by the addition of acetonitrile. Control samples (containing no NADPH) were included (and quenched at 2, 30 and 60 min) to monitor for potential degradation in the absence of cofactors. Concentrations of each test compound in quenched samples were determined by ultra performance liquid chromatography mass spectrometry (UPLC-MS) (Waters/Micromass Xevo triple quadrupole mass spectrometer). […] In addition, glucuronidation was not considered in this study and may require further assessment using alternative test systems.
Test compound concentration vs. time data were fitted to an exponential decay function to determine the first-order rate constant for substrate depletion. In cases where clear deviation from first-order kinetics was evident, only the initial linear portion of the profile was utilised to determine the degradation rate constant (k). Each substrate depletion rate constant was then used to calculate: (1) a degradation half-life, where t 1/2 = ln(2) k ^−1; (2) an in vitro intrinsic clearance value, where CLint,in vitro = k [microsomal protein content (0.4 mg mL^−1)]^−1; (3) a predicted in vivo hepatic intrinsic clearance value, where CLint = CLint,in vitro × [liver mass (g)/body weight (kg)] × [microsomal protein (mg) / liver mass (g)]; and (4) a predicted in vivo hepatic extraction ratio, where E H = CLblood Q ^−1 = Clint [Q + Clint]^−1.
Scaling parameters assumed were: human liver mass 20 g liver / kg body weight, human microsomal protein 40 mg g^−1 liver mass[49], [50], human hepatic blood flow (Q) 20.7 mL min^−1 kg body weight^−1 [51], mouse liver mass 87.5 g liver / kg body weight, mouse microsomal protein 45 mg g^−1 liver mass[51], mouse hepatic blood flow (Q) 90 mL min^−1 kg body weight^−1 [51].

Data set [4] relates to S. aureus (MRSA) ATCC 43300. As to the kind of experiment: Resistance frequency assay. The format is cell-based. To be noted: Staphylococcus aureus; TSB 1% agarose, 0.002% Tween 80; read-out: Agarose plate MIC.
Experimental: The resistance frequency for Compound 19 was determined following literature procedures[41], [42].
Compound 19 was prepared to 160 µg mL^−1 solution in water from the given stock solution of 1 mM concentration. Vancomycin was prepared to 1.28 mg mL^−1 solution in water.
Tryptic soy broth (TSB) with 1% agarose and 0.002% Tween 80 was maintained at 45 to 50 °C in a water bath. 160 mL of agarose was transferred to 200 mL glass bottle, maintaining the remaining agarose in the water bath. […] A volume of 80 mL of agarose sample [A] was plated in four petri plates (duplicates/condition—neat, 10^−1) with swirling to ensure that the bottom of the plate was coated equally. An additional 80 mL of fresh agarose was added to the remaining 80 mL of agarose [A] sample to achieve a twofold dilution to provide agarose sample [B]. Once again, 80 mL of agarose sample [B] was plated in four petri plates. […]
Bacteria were subcultured at 37 °C overnight with shaking at 220 rpm. […] Resultant separated visible colonies were counted; those colonies that grow together were not included to determine the titre of the culture. […]
The colonies were counted after 24 h. The resistance frequency is determined by dividing the number of colonies obtained on the plates containing the antibacterial agent by the number of cells plated.
The test system of the next data set is MRSA (Strain ATCC 43300). The experiment in a line: MRSA thigh infection in vivo efficacy model (neutropenic mice). Also on record: species or system Staphylococcus aureus. To be noted: single 25 mg kg^−1 SC dose. As to the method: Thighs were then removed, weighed and homogenised in a fixed volume of saline.
Untreated animals received equivalent volume of saline (Baxter). […] For each mouse, both thighs were collected aseptically by cutting the leg at the hip and knee, placed in 10 mL of cold sterile saline and the individual weight of each thigh recorded.

Data set [5] deals with S. pneumoniae (ATCC 6301). The experiment in a line: S. pneumoniae lung infection in vivo efficacy model (mice). On the set-up: species or system Streptococcus pneumoniae. To be noted: 25 mg kg^−1 SC qd, 10 days.
Experimental: The study objective was to evaluate the antimicrobial activity of test articles in a lung infection model with S. pneumoniae (ATCC® 6301™). Male ICR mice were inoculated intratracheally (IT) with S. pneumoniae at an inoculum size of 2.96 × 10^6 CFU per mouse (20 µL per mouse). […] The reference standard, vancomycin 1, was dosed at 25 mg kg^−1 qd SC at 2 h after IT inoculation. […] An increase in survival rate of 50 percent or more ( ≥ 50%) of the treated animals relative to the vehicle group indicates significant antimicrobial activity.
Test substances at 25 mg kg^−1 were each administered subcutaneously (SC) to test animals 2 h after inoculation. The dosing volume was 10 mL kg^−1.
Vehicle (10 mL kg^−1), vancomycin and test substances at 25 mg kg^−1 were each administered subcutaneously 2 h post-infection. Mortality was recorded daily for 10 days following inoculation. Increase of 50 percent or more (≥ 50%) in survival rate relative to the vehicle control group indicates significant anti-infective activity.

Experimental for MRSA (ATCC 43300): A resistance induction assay was conducted for vancomycin, daptomycin, compound 17 and compound 24 [43].
S. aureus ATCC®43300™ was grown in Mueller Hinton broth supplemented with 50 µg mL^−1 of CaCl2. The bacterial culture was incubated at 37 °C in a shaker at 195 rpm.
The mid log S. aureus growth culture was serially diluted and plated on a solid LB agar plates in quadruplicates and incubated at 37 °C overnight to determine viable colony count.
The initial determination of the compound MICs were taken from the literature and empirically measured. […] The plate was then incubated at 37 °C overnight.
After overnight incubation, the growth of the S. aureus (MRSA) culture was determined by reading at OD600 on the Epoch microplate spectrophotometer and 0.1 OD600 was the chosen cut-off determining growth vs. no growth.

On to `CN[C@H]1C(=O)N[C@@H]2Cc3ccc(cc3)Oc3cc4cc(c3O[C@@H]3O[C@H](C(=O)O)[C@@H](O)[C@H](O)[C@H]3NC(=O)CCCCCCCCC(C)C)Oc3ccc(cc3Cl)[C@@H](O)[C@@H]3NC(=O)[C@H](NC(=O)[C@@H]4NC(=O)[C@@H](NC2=O)c2cc(cc(O)c2Cl)Oc2cc1ccc2O)c1ccc(O)c(c1)-c1c(O[C@H]2O[C@H](CO)[C@@H](O)[C@H](O)[C@@H]2O)cc(O)cc1[C@@H](C(=O)NCCCN(C)C)NC3=O` [Compound 3, Dalbavancin], for which, in the data set with MRSA, the “MIC +50% HS” value was 8 µg/mL (≈ 4.4 µM).

With `CCCCCCCCCCCCCC(=O)N[C@@H](CCCCN)C(=O)N[C@@H](CCCCN)C(=O)N[C@@H](CCCCN)C(=O)N[C@@H](CCCCNC(=O)[C@H]1NC(=O)[C@H]2NC(=O)[C@H](NC(=O)[C@@H]3NC(=O)[C@H](CC(N)=O)NC(=O)[C@H](NC(=O)[C@@H](CC(C)C)NC)[C@H](O)c4ccc(c(Cl)c4)Oc4cc3cc(c4O[C@@H]3O[C@H](CO)[C@@H](O)[C@H](O)[C@H]3O[C@H]3C[C@](C)(N)[C@H](O)[C@H](C)O3)Oc3ccc(cc3Cl)[C@H]2O)c2ccc(O)c(c2)-c2c(O)cc(O)cc21)C(=O)O` [Compound 17, nC13CO-KKK-K(Vancomycin)-OH], the “Membrane association by SPR compared to vancomycin” value in data set [1] was “Increased membrane association”. The “critical micelle concentration (CMC)” value in data set [2] is listed as “exceed 100 µM”. The “Induced resistance on serial culture” value with MRSA (ATCC 43300) was “low levels of resistance compared to daptomycin”.

For `CCCCCCCCCCC(=O)N[C@@H](CCCCN)C(=O)N[C@@H](CCCCN)C(=O)N[C@@H](CCCCNC(=O)[C@H]1NC(=O)[C@H]2NC(=O)[C@H](NC(=O)[C@@H]3NC(=O)[C@H](CC(N)=O)NC(=O)[C@H](NC(=O)[C@@H](CC(C)C)NC)[C@H](O)c4ccc(c(Cl)c4)Oc4cc3cc(c4O[C@@H]3O[C@H](CO)[C@@H](O)[C@H](O)[C@H]3O[C@H]3C[C@](C)(N)[C@H](O)[C@H](C)O3)Oc3ccc(cc3Cl)[C@H]2O)c2ccc(O)c(c2)-c2c(O)cc(O)cc21)C(=O)O` [Compound 19, nC10CO-KK-K(Vancomycin)-OH], in data set [3] (human), the half-life was above 4.17 h, the microsomal CLint was below 7 µL/min/mg and the “Microsome-Predicted EH” value is given as below 0.23. For the same compound, in data set [3] (mouse), the half-life was above 4.17 h, the microsomal CLint was below 7 µL/min/mg and the “Microsome-Predicted EH” value is recorded as below 0.23.

For `CN[C@H](CC(C)C)C(=O)N[C@H]1C(=O)N[C@@H](CC(N)=O)C(=O)N[C@H]2C(=O)N[C@H]3C(=O)N[C@H](C(=O)N[C@H](C(=O)O)c4cc(O)cc(O)c4-c4cc3ccc4O)[C@H](O)c3ccc(c(Cl)c3)Oc3cc2cc(c3O[C@@H]2O[C@H](CO)[C@@H](O)[C@H](O)[C@H]2O[C@H]2C[C@](C)(N)[C@H](O)[C@H](C)O2)Oc2ccc(cc2Cl)[C@H]1O` [Compound 1, Vancomycin], the minimal inhibitory concentration (MIC) in data set [4] was 1 µg/mL (≈ 0.69 µM). The “Efficacy in thigh infection model” value with MRSA (Strain ATCC 43300) is “almost inactive”. Besides, the “survival rate relative to the vehicle control” value in data set [5] is on record as at least 50%.

As to `CCCCCCCCCCC(=O)N[C@@H](CCCCN)C(=O)N[C@@H](CCCCN)C(=O)N[C@@H](CCCCN)C(=O)N[C@@H](CCCCNC(=O)[C@H]1NC(=O)[C@H]2NC(=O)[C@H](NC(=O)[C@@H]3NC(=O)[C@H](CC(N)=O)NC(=O)[C@H](NC(=O)[C@@H](CC(C)C)NC)[C@H](O)c4ccc(c(Cl)c4)Oc4cc3cc(c4O[C@@H]3O[C@H](CO)[C@@H](O)[C@H](O)[C@H]3O[C@H]3C[C@](C)(N)[C@H](O)[C@H](C)O3)Oc3ccc(cc3Cl)[C@H]2O)c2ccc(O)c(c2)-c2c(O)cc(O)cc21)C(=O)O` [Compound 18, nC10CO-KKK-K(Vancomycin)-OH], in data set [3] (human), the half-life was above 4.17 h, the microsomal CLint was below 7 µL/min/mg and the “Microsome-Predicted EH” value is recorded as below 0.23. Moreover, in data set [3] (mouse), the half-life stood at 3.93 h, the microsomal CLint was found to be 7 µL/min/mg and the “Microsome-Predicted EH” value is 0.24.
